Measured values from patent publication US20160039947A1 (Eli Lilly, published 2016).
One block for each binder: values may come before it.

Columns and labels:
hHER-2-Fc [1] = target: T1, hHER-2-Fc (human, UniProt P04626 23-652); test: sandwich ELISA: hHER-2-Fc coated, BsAb, hEGFR-Fc-biotin detection
T1 construct: Coated unlabelled in the sandwich ELISA; biotinylated and captured on an SA chip in the SPR assay; also called human HER-2-Fc; hHER-2-Fc-biotin; not shown: Fc part of the bought fusion protein
Method: (§1) Two sandwich ELISAs are developed, one for detecting anti-HER-2/anti-EGFR BsAb activity and one for detecting anti-cMET/anti-Axl BsAb activity. For both ELISAs, clear 96-well round bottom high binding Immulon microtiter plates (Greiner bio-one, cat#650061) are coated overnight at 2-8° C. with 50 μL/well 1 μg/mL hHER-2-Fc or 1 μg/mL hHGFR(cMet)-Fc (both from R&D systems) in a 50 mM Na₂CO₃ pH 8 buffer. The plates are washed 4 times with PB ST and blocked with 100 μL/well casein buffer (Pierce) for 1 hr at 37° C. The plates are then washed 4 times with PBST and the parental IgG controls or BsAb IgG test articles are added at 50 μL/well and 5 μg/mL and serially diluted 1:3 down the plate. The test articles are incubated on the plate for 1 hr at 37° C. The plates are then washed 4 times with PBST and 50 μL/well 0.2 μg/mL hEGFR-Fc-biotin or hAxl-Fc-biotin (both from R&D systems) is added for 1 hr at 37° C. The plates are then washed 4 times with PBST followed by the addition of a 50 μL/well streptavidin-HRP (Jackson Labs) diluted 1:2000 in PBST. The streptavidin-HRP is incubated in each well for 1 hr at 37° C. The plates are then washed 4 times with PBST and 100 μL/well 1-component TMB substrate is added (KPL laboratories). After approximately 10 minutes, 100 mL/well 1% H₃PO₄ (in H₂O) is added to each plate to quench the reaction. Absorbance (450 nm) of every well in the plates is read using a SpectraMax UV plate reader (Molecular Devices). Biotin-labeling of the hEGFR-Fc and hAxl-Fc proteins is performed using EZ-Link Sulfo-NHS-LC-Biotin (Thermo Scientific) according to the manufacturer's protocol.

hEGFR-Fc = target: T2, hEGFR-Fc (human, UniProt P00533 25-645); test: as above
T2 construct: Biotin-labelled (EZ-Link Sulfo-NHS-LC-Biotin) as detection reagent in the ELISA; unlabelled second injection in SPR; also called hEGFR-Fc-biotin; not shown: Fc part of the bought fusion protein
Method: as §1

hHER-2-Fc [2] = target: T1, hHER-2-Fc; test: sandwich ELISA: hHER-2-Fc coated, IgG, hEGFR-Fc-biotin detection
Method: as §1, with “After approximately 10 minutes, 100 mL/well 1% H₃PO₄ (in H₂O) is added to each plate to quench the reaction.” left out, “Biotin-labeling of the hEGFR-Fc and hAxl-Fc proteins is performed using EZ-Link Sulfo-NHS-LC-Biotin (Thermo Scientific) according to the manufacturer's protocol.” left out

hHGFR(cMet)-Fc = target: T3, hHGFR(cMet)-Fc (human, UniProt P08581 25-932); test: sandwich ELISA: hHGFR(cMet)-Fc coated, IgG, hAxl-Fc-biotin detection
T3 construct: Coated in the sandwich ELISA; second injection in SPR; not shown: Fc part of the bought fusion protein
T3 sequence (P08581 25-932): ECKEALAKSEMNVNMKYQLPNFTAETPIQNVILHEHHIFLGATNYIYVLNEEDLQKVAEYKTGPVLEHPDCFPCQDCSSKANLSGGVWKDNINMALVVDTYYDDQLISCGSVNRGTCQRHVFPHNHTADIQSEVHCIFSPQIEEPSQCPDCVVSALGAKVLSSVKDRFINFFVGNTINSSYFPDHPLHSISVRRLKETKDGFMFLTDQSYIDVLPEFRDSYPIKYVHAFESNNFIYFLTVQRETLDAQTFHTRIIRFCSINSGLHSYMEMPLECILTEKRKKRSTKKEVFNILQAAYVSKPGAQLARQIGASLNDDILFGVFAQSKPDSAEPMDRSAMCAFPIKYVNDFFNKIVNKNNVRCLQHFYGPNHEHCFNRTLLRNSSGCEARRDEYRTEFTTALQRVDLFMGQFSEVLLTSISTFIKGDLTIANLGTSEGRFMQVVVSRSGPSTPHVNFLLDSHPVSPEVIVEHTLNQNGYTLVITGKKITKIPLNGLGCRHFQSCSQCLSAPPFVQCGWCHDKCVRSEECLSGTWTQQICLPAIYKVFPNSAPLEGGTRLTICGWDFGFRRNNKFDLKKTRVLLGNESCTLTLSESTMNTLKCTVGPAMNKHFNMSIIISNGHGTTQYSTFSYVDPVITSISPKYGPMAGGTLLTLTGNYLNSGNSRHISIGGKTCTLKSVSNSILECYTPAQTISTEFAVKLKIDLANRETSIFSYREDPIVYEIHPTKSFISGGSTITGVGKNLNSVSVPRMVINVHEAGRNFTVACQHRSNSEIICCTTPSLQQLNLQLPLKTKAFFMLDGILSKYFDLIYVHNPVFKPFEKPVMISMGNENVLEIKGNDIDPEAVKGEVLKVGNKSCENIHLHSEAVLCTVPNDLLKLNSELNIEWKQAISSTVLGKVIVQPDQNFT
Method: as §1, with “After approximately 10 minutes, 100 mL/well 1% H₃PO₄ (in H₂O) is added to each plate to quench the reaction.” left out, “Biotin-labeling of the hEGFR-Fc and hAxl-Fc proteins is performed using EZ-Link Sulfo-NHS-LC-Biotin (Thermo Scientific) according to the manufacturer's protocol.” left out

B1: HEDesign λλ (anti-HER-2/anti-EGFR IgG BsAb with Fab redesigns) (bispecific antibody)
heavy 1: EVQLVESGGGLVQPGGSLRLSCAASGFTFTDYTMDWVRKAPGKGLEWVADVNPNSGGSIYNQEFKGRFTLSVDRSKNTLYLQMNSLRAEDTAVYYCARNLGPSFYFDYWGQGTLVTVSSASTKGPSVFPLAPSSKSTSGGTAALGCLVKDYFPEPVTVSWNSGALTSGVATGPAVLQSSGLYSLSSVVTVPSSSLGTQTYICNVNHKPSNTKVDKKVEPKSCDKTHTCPPCPAPELLGGPSVFLFPPKPKDTLMISRTPEVTCVVVDVSHEDPEVKFNWYVDGVEVHNAKTKPREEQYQSTYRVVSVLTVLHQDWLNGKEYKCKVSNKALPAPIEKTISKAKGQPREPQVYTLPPSRDELTKNQVSLTCLVKGFYPSDIAVEWESNGQPENNYDTTPPVLDSDGSFFLYSDLTVDKSRWQQGNVFSCSVMHEALHNHYTQKSLSLSPG
light 1: RIQMTQSPSSLSASVGDRVTITCKASQDVSIGVAWYQDKPGKAPKLLIYSASYRYTGVPSRFSGSGSGTDFTLTISSLQPEDFATYYCQQYYIYPYTFGQGTKVEIKGQPKAAPSVTLFPPSSEELQANKATLVCYISDFYPGAVTVAWKADSSPVKAGVETTTPSKQSNNKYAAWSYLSLTPEQWKSHRSYSCQVTHEGSTVEKTVAPTEC
heavy 2: QVQLVQSGAEVKKPGASVKVSCKASGYTFTSHWMHWVRYAPGQGLEWIGEFNPSNGRTNYNEKFKSKATMTVDTSTNTAYMELSSLRSEDTAVYYCASRDYDYDGRYFDYWGQGTLVTVSSASTKGPSVFPLAPSSKSTSGGTAALGCLVKDYFPEPVTVSWNSGALTSGVHTFPAVLQSSGLYSLSSVVTVPSSSLGTQTYICNVNHKPSNTKVDKKVEPKSCDKTHTCPPCPAPELLGGPSVFLFPPKPKDTLMISRTPEVTCVVVDVSHEDPEVKFNWYVDGVEVHNAKTKPREEQYQSTYRVVSVLTVLHQDWLNGKEYKCKVSNKALPAPIEKTISKAKGQPREPQVYTLPPSRKELTKNQVSLTCLVKGFYPSDIAVEWESNGQPENNYKTTPPVLKSDGSFFLYSKLTVDKSRWQQGNVFSCSVMHEALHNHYTQKSLSLSPG
light 2: DIQMTQSPSSLSASVGDRVTITCSASSSVTYMYWYQRKPGKAPKLLIYDTSNLASGVPSRFSGSGSGTDYTFTISSLQPEDIATYYCQQWSSHIFTFGQGTKVEIKGQPKAAPSVTLFPPSSEELQANKATLVCLISDFYPGAVTVAWKADSSPVKAGVETTTPSKQSNNKYAASSYLSLTPEQWKSHRSYSCQVTHEGSTVEKTVAPTEC
notes: also called HE Designs
- binding result (hHER-2-Fc [1]): binds
- binding result (hEGFR-Fc): binds

B4: matuzumab IgG1 (mG1) (antibody, V domains shown)
VH: QVQLVQSGAEVKKPGASVKVSCKASGYTFTSHWMHWVRQAPGQGLEWIGEFNPSNGRTNYNEKFKSKATMTVDTSTNTAYMELSSLRSEDTAVYYCASRDYDYDGRYFDYWGQGTLVTVSS
VL: DIQMTQSPSSLSASVGDRVTITCSASSSVTYMYWYQQKPGKAPKLLIYDTSNLASGVPSRFSGSGSGTDYTFTISSLQPEDIATYYCQQWSSHIFTFGQGTKVEIKG
notes: also called matuzumab (anti-EGFR) control IgG
- binding result (hHER-2-Fc [2]): no binding (tested: 5 µg/mL, serially diluted 1:3)

B5: Anti-Axl IgG1 (AxlG1) (antibody, V domains shown)
VH: EVQLVESGGGLVQPGGSLRLSCAASGFSLSGSWIHWVRQAPGKGLEWVGWINPYRGYAYYADSVKGRFTISADTSKNTAYLQMNSLRAEDTAVYYCAREYSGWGGSSVGYAMDYWGQGTLVTVSS
VL: DIQMTQSPSSLSASVGDRVTITCRASQDVSTAVAWYQQKPGKAPKLLIYSASFLYSGVPSRFSGSGSGTDFTLTISSLQPEDFATYYCQQSYTTPPTFGQGTKVEIKG
notes: also called anti-Axl antibody YW327.6S2 control IgG
- binding result (hHGFR(cMet)-Fc): no binding (tested: 5 µg/mL, serially diluted 1:3)

More lines, now with the values ahead:

- binding result (hHER-2-Fc [1]): binds
- binding result (hEGFR-Fc): binds
B2: HEDesign κλ (anti-HER-2/anti-EGFR IgG BsAb with Fab redesigns) (bispecific antibody)
heavy 1: B1 heavy 1
light 1: RIQMTQSPSSLSASVGDRVTITCKASQDVSIGVAWYQDKPGKAPKLLIYSASYRYTGVPSRFSGSGSGTDFTLTISSLQPEDFATYYCQQYYIYPYTFGQGTKVEIKRTVAAPSVFIFPPSDEQLKSGTASVVCYLNNFYPREAKVQWKVDNALQSGNSQESVTEQDSKDSTYSLWSTLTLSKADYEKHKVYACEVTHQGLSSPVTKSFNRGEC
heavy 2: B1 heavy 2
light 2: B1 light 2
notes: also called HE Designs

- binding result (hHER-2-Fc [1]): binds
- binding result (hEGFR-Fc): binds
B3: HEDesign λκ (anti-HER-2/anti-EGFR IgG BsAb with Fab redesigns) (bispecific antibody)
heavy 1: B1 heavy 1
light 1: B1 light 1
heavy 2: B1 heavy 2
light 2: DIQMTQSPSSLSASVGDRVTITCSASSSVTYMYWYQRKPGKAPKLLIYDTSNLASGVPSRFSGSGSGTDYTFTISSLQPEDIATYYCQQWSSHIFTFGQGTKVEIKRTVAAPSVFIFPPSDEQLKSGTASVVCLLNNFYPREAKVQWKVDNALQSGNSQESVTEQDSKDSTYSLSSTLTLSKADYEKHKVYACEVTHQGLSSPVTKSFNRGEC
notes: also called HE Designs
